Assay results from paper PMC8396234.

Target: GHSR1a-RLuc (ghrelin GHSR1a receptor fused to Renilla luciferase) (human) (UniProt Q92847)
Details: scale: % decrease of forskolin-induced cAMP levels

UniProt Q92847, sequence (Q92847 whole entry, the tested form may be a part): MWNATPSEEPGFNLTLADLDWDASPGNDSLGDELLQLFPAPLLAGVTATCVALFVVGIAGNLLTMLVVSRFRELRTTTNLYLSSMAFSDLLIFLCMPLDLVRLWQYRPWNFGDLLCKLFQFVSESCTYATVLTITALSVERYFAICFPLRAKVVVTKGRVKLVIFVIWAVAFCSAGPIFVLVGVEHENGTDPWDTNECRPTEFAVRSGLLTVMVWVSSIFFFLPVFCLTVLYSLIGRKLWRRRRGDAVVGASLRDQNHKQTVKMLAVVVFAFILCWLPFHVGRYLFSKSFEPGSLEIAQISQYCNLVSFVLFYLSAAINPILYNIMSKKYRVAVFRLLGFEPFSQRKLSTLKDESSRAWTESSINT

forskolin-induced cAMP levels in HEK-293T cells expressing GHSR1a alone, 200 nM ghrelin: 25
Substance: Ghrelin (peptide)
